Target: T1, LFA-3, purified (human (endogenous in JY), UniProt P19256 29-250)
T1 sequence (looked up): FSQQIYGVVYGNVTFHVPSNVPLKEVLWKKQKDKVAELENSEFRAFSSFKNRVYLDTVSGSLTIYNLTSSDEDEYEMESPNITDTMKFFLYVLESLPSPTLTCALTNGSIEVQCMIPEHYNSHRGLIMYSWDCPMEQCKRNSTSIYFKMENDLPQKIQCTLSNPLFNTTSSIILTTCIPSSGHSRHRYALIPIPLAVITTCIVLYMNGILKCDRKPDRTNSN
Experiment: cell adhesion to purified protein

B1: CD2 on SKW3 cells (receptor, human (endogenous in SKW3), UniProt P06729 25-351, looked up)
chain: KEITNALETWGALGQDINLDIPSFQMSDDIDDIKWEKTSDKKKIAQFRKEKETFKEKDTYKLFKNGTLKIKHLKTDDQDIYKVSIYDTKGKNVLEKIFDLKIQERVSKPKISWTCINTTLTCEVMNGTDPELNLYQDGKHLKLSQRVITHKWTTSLSAKFKCTAGNKVSKESSVEPVSCPEKGLDIYLIIGICGGGSLLMVFVALLVFYITKRKKQRSRRNDEELETRAHRVATEERGRKPHQIPASTPQNPATSQHPPPPPGHRSQAPSHRPPPPGHRVQHQPQKRPPAPSGTQVHQQKGPPLPRPRVQPKPPHGAAENSLSPSSN
  fold increase of cell binding on PMA stimulation: 3 fold

Reference: paper PMC2191386 (The Journal of Experimental Medicine, 1994)
